Measurements from the supplement of paper PMC9112550, “Optimization of the antimicrobial peptide Bac7 by deep mutational scanning” (BMC Biology, 2022).

Tested on: Escherichia coli TOP10
Experiment: shrunken log2 fold change of peptide-encoding DNA abundance (4.5 h post-induction vs induction); higher = less antimicrobial activity (less host growth inhibition)
Conditions: time post-induction: 4.5 h; library: site-saturation at positions 5, 18, 19, 20
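Further: peptides expressed intracellularly from a pBAD plasmid library in pooled LB shake-flask culture, induced with 0.3% L-arabinose, DNA abundance read by NGS, three biological replicates, DESeq2 with apeglm shrinkage.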

Sequence | shrunken log2 fold change
RRIRKRPPRLPRPRPRPMRFPRP | 0.123
RRIRKRPPRLPRPRPRPMSHPRP | -0.0712
RRIRKRPPRLPRPRPRPMTTPRP | 0.31
RRIRKRPPRLPRPRPRPMVMPRP | 0.0746
RRIRKRPPRLPRPRPRPMWTPRP | 0.151
RRIRKRPPRLPRPRPRPMYLPRP | 0.239
RRIRKRPPRLPRPRPRPNAGPRP | -0.00783
RRIRKRPPRLPRPRPRPNARPRP | 0.076
RRIRKRPPRLPRPRPRPNAVPRP | 0.385
RRIRKRPPRLPRPRPRPNCQPRP | -0.263
RRIRKRPPRLPRPRPRPNETPRP | 0.118
RRIRKRPPRLPRPRPRPNFHPRP | 0.676
RRIRKRPPRLPRPRPRPNGRPRP | 0.131
RRIRKRPPRLPRPRPRPNHDPRP | -0.0524
RRIRKRPPRLPRPRPRPNHVPRP | 0.0656
RRIRKRPPRLPRPRPRPNHYPRP | -0.441
RRIRKRPPRLPRPRPRPNNVPRP | 0.0112
RRIRKRPPRLPRPRPRPNPFPRP | 1.91
RRIRKRPPRLPRPRPRPNPSPRP | 0.108
RRIRKRPPRLPRPRPRPNQPPRP | 0.146
RRIRKRPPRLPRPRPRPNSDPRP | -0.0158
RRIRKRPPRLPRPRPRPNTTPRP | -0.0509
RRIRKRPPRLPRPRPRPNVVPRP | 0.0163
RRIRKRPPRLPRPRPRPNWDPRP | 1.4
RRIRKRPPRLPRPRPRPNWEPRP | 0.0515

Sequence | shrunken log2 fold change
RRIRKRPPRLPRPRPRPNWHPRP | -0.0566
RRIRKRPPRLPRPRPRPNWPPRP | 0.19
RRIRKRPPRLPRPRPRPNWQPRP | 0.0483
RRIRKRPPRLPRPRPRPNYKPRP | -0.507
RRIRKRPPRLPRPRPRPPAVPRP | 0.847
RRIRKRPPRLPRPRPRPPCTPRP | 0.193
RRIRKRPPRLPRPRPRPPDVPRP | -0.0127
RRIRKRPPRLPRPRPRPPEEPRP | 1.79
RRIRKRPPRLPRPRPRPPEVPRP | 0.741
RRIRKRPPRLPRPRPRPPGLPRP | 0.308
RRIRKRPPRLPRPRPRPPGYPRP | 0.176
RRIRKRPPRLPRPRPRPPIFPRP | 0.269
RRIRKRPPRLPRPRPRPPIQPRP | 0.304
RRIRKRPPRLPRPRPRPPIRPRP | -0.104
RRIRKRPPRLPRPRPRPPMHPRP | 0.636
RRIRKRPPRLPRPRPRPPMKPRP | 0.135
RRIRKRPPRLPRPRPRPPMTPRP | -0.00191
RRIRKRPPRLPRPRPRPPPCPRP | 0.585
RRIRKRPPRLPRPRPRPPPGPRP | 0.961
RRIRKRPPRLPRPRPRPPTDPRP | 0.544
RRIRKRPPRLPRPRPRPPTEPRP | 0.395
RRIRKRPPRLPRPRPRPPTHPRP | 0.42
RRIRKRPPRLPRPRPRPPVNPRP | 0.04
RRIRKRPPRLPRPRPRPPVTPRP | 0.39
RRIRKRPPRLPRPRPRPPWIPRP | -0.0983

Sequence | shrunken log2 fold change
RRIRKRPPRLPRPRPRPPWTPRP | 0.527
RRIRKRPPRLPRPRPRPPYMPRP | -0.209
RRIRKRPPRLPRPRPRPPYRPRP | -0.17
RRIRKRPPRLPRPRPRPPYYPRP | -0.291
RRIRKRPPRLPRPRPRPQCHPRP | 0.273
RRIRKRPPRLPRPRPRPQFAPRP | -0.0223
RRIRKRPPRLPRPRPRPQHDPRP | 0.202
RRIRKRPPRLPRPRPRPQHVPRP | -0.124
RRIRKRPPRLPRPRPRPQHWPRP | 0.474
RRIRKRPPRLPRPRPRPQIEPRP | 0.0198
RRIRKRPPRLPRPRPRPQKGPRP | -0.0581
RRIRKRPPRLPRPRPRPQKMPRP | 0.0795
RRIRKRPPRLPRPRPRPQKRPRP | 0.403
RRIRKRPPRLPRPRPRPQKTPRP | 0.167
RRIRKRPPRLPRPRPRPQLAPRP | 0.898
RRIRKRPPRLPRPRPRPQLNPRP | 0.0489
RRIRKRPPRLPRPRPRPQLSPRP | -0.272
RRIRKRPPRLPRPRPRPQLYPRP | 0.0948
RRIRKRPPRLPRPRPRPQMMPRP | -0.0245
RRIRKRPPRLPRPRPRPQNDPRP | -0.0578
RRIRKRPPRLPRPRPRPQPAPRP | 0.783
RRIRKRPPRLPRPRPRPQPCPRP | 0.192
RRIRKRPPRLPRPRPRPQPFPRP | 0.18
RRIRKRPPRLPRPRPRPQPLPRP | 0.405
RRIRKRPPRLPRPRPRPQQRPRP | 0.0562

Sequence | shrunken log2 fold change
RRIRKRPPRLPRPRPRPQQTPRP | -0.0533
RRIRKRPPRLPRPRPRPQRFPRP | -0.00315
RRIRKRPPRLPRPRPRPQSHPRP | 0.353
RRIRKRPPRLPRPRPRPQSPPRP | 0.18
RRIRKRPPRLPRPRPRPQTIPRP | 0.0582
RRIRKRPPRLPRPRPRPQTPPRP | 1.39
RRIRKRPPRLPRPRPRPQVAPRP | -0.0663
RRIRKRPPRLPRPRPRPQWCPRP | 0.149
RRIRKRPPRLPRPRPRPQYAPRP | 0.0233
RRIRKRPPRLPRPRPRPRAEPRP | 0.632
RRIRKRPPRLPRPRPRPRDAPRP | 0.558
RRIRKRPPRLPRPRPRPREGPRP | 1.08
RRIRKRPPRLPRPRPRPRFDPRP | 0.19
RRIRKRPPRLPRPRPRPRFIPRP | 0.346
RRIRKRPPRLPRPRPRPRGTPRP | 0.648
RRIRKRPPRLPRPRPRPRKAPRP | 0.384
RRIRKRPPRLPRPRPRPRLGPRP | 0.587
RRIRKRPPRLPRPRPRPRLYPRP | 0.0187
RRIRKRPPRLPRPRPRPRMAPRP | 0.818
RRIRKRPPRLPRPRPRPRMLPRP | 0.588
RRIRKRPPRLPRPRPRPRMVPRP | 0.168
RRIRKRPPRLPRPRPRPRNMPRP | -0.162
RRIRKRPPRLPRPRPRPRNVPRP | 0.132
RRIRKRPPRLPRPRPRPRPYPRP | 0.182
RRIRKRPPRLPRPRPRPRQIPRP | 0.298

Sequence | shrunken log2 fold change
RRIRKRPPRLPRPRPRPRQWPRP | 0.263
RRIRKRPPRLPRPRPRPRSAPRP | 0.884
RRIRKRPPRLPRPRPRPRSEPRP | -0.00081
RRIRKRPPRLPRPRPRPRTRPRP | 0.618
RRIRKRPPRLPRPRPRPRVCPRP | 0.282
RRIRKRPPRLPRPRPRPRVHPRP | 0.252
RRIRKRPPRLPRPRPRPRVNPRP | 0.0555
RRIRKRPPRLPRPRPRPRVPPRP | 0.0172
RRIRKRPPRLPRPRPRPRWTPRP | 0.347
RRIRKRPPRLPRPRPRPRWWPRP | 0.316
RRIRKRPPRLPRPRPRPRYKPRP | 0.15
RRIRKRPPRLPRPRPRPRYLPRP | -0.179
RRIRKRPPRLPRPRPRPSAQPRP | 1.84
RRIRKRPPRLPRPRPRPSDEPRP | 0.258
RRIRKRPPRLPRPRPRPSETPRP | 0.0356
RRIRKRPPRLPRPRPRPSEYPRP | -0.026
RRIRKRPPRLPRPRPRPSFAPRP | 0.337
RRIRKRPPRLPRPRPRPSGLPRP | -0.0301
RRIRKRPPRLPRPRPRPSIHPRP | -0.551
RRIRKRPPRLPRPRPRPSKDPRP | 0.395
RRIRKRPPRLPRPRPRPSKNPRP | 0.219
RRIRKRPPRLPRPRPRPSLIPRP | -0.0338
RRIRKRPPRLPRPRPRPSLLPRP | -0.0176
RRIRKRPPRLPRPRPRPSLYPRP | 0.0834
RRIRKRPPRLPRPRPRPSNRPRP | -0.00152

Sequence | shrunken log2 fold change
RRIRKRPPRLPRPRPRPSNSPRP | 0.13
RRIRKRPPRLPRPRPRPSPHPRP | -0.0333
RRIRKRPPRLPRPRPRPSPLPRP | 0.446
RRIRKRPPRLPRPRPRPSRMPRP | 0.317
RRIRKRPPRLPRPRPRPSSFPRP | 0.0223
RRIRKRPPRLPRPRPRPSSSPRP | -0.94
RRIRKRPPRLPRPRPRPSVEPRP | 0.0133
RRIRKRPPRLPRPRPRPSVIPRP | -0.0922
RRIRKRPPRLPRPRPRPSVYPRP | -0.0427
RRIRKRPPRLPRPRPRPSYDPRP | 0.0212
RRIRKRPPRLPRPRPRPTACPRP | 0.108
RRIRKRPPRLPRPRPRPTAIPRP | 0.444
RRIRKRPPRLPRPRPRPTAQPRP | 1.88
RRIRKRPPRLPRPRPRPTCCPRP | 0.0692
RRIRKRPPRLPRPRPRPTCSPRP | 0.281
RRIRKRPPRLPRPRPRPTDAPRP | 0.05
RRIRKRPPRLPRPRPRPTDSPRP | -0.0461
RRIRKRPPRLPRPRPRPTEVPRP | 0.158
RRIRKRPPRLPRPRPRPTEWPRP | 0.0407
RRIRKRPPRLPRPRPRPTFAPRP | 0.673
RRIRKRPPRLPRPRPRPTFKPRP | 0.0344
RRIRKRPPRLPRPRPRPTHRPRP | 1.15
RRIRKRPPRLPRPRPRPTHWPRP | 0.796
RRIRKRPPRLPRPRPRPTIDPRP | 0.128
RRIRKRPPRLPRPRPRPTIIPRP | -0.0974
